Source: patent US20240132578A1

How the values were obtained:
Experiment in all cases: cell-based or functional assay
[1] = biological target: HIV-1 JR-CSF Env D477A (HIV-1 JR-CSF) (UniProt P20871)
[2] = biological target: HIV-1 Env of isolate MGRM-G-019 (subtype G), on pseudovirus (HIV-1)
[3] = biological target: HIV-1 Env of isolate MGRM-G-011 (subtype G), on pseudovirus (HIV-1)
[4] = biological target: HIV-1 Env of isolate MGRM-G-017 (subtype G), on pseudovirus (HIV-1)
[5] = biological target: HIV-1 Env of isolate MGRM-C-022 (subtype C) (HIV-1)
[6] = biological target: HIV-1 Env of isolate MGRM-C-020 (subtype C) (HIV-1)
[7] = biological target: HIV-1 Env of isolate MGRM-C-007 (subtype C) (HIV-1)
[8] = biological target: HIV-1 Env of isolate MGRM-C-015 (subtype C) (HIV-1)
[9] = biological target: HIV-1 Env of isolate MGRM-G-001 (subtype G), on pseudovirus (HIV-1)
[10] = biological target: HIV-1 Env of isolate MGRM-C-001 (subtype C) (HIV-1)
[11] = biological target: HIV-1 Env of isolate MGRM-C-012 (subtype C) (HIV-1)
[12] = biological target: HIV-1 Env of isolate MGRM-G-006 (subtype G), on pseudovirus (HIV-1)
[13] = biological target: HIV-1 Env of isolate MGRM-C-013 (subtype C) (HIV-1)
[14] = biological target: aMLV envelope, on pseudovirus (negative control)
[15] = biological target: HIV-1 Env of isolate MGRM-G-013 (subtype G), on pseudovirus (HIV-1)
[16] = biological target: HIV-1 Env of isolate MGRM-C-017 (subtype C) (HIV-1)
[17] = biological target: HIV-1 Env of isolate MGRM-C-024 (subtype C) (HIV-1)
[18] = biological target: HIV-1 Env of isolate MGRM-C-025 (subtype C) (HIV-1)
[19] = biological target: HIV-1 Env of isolate MGRM-C-019 (subtype C) (HIV-1)
[20] = biological target: HIV-1 JR-CSF Env N478A (HIV-1 JR-CSF) (UniProt P20871)
[21] = biological target: HIV-1 Env of isolate MGRM-G-024 (subtype G), on pseudovirus (HIV-1)
[22] = biological target: HIV-1 Env of isolate MGRM-C-014 (subtype C) (HIV-1)
[23] = biological target: HIV-1 Env of isolate MGRM-C-023 (subtype C) (HIV-1)
[24] = biological target: HIV-1 Env of isolate MGRM-C-002 (subtype C) (HIV-1)
[25] = biological target: HIV-1 Env of isolate MGRM-C-010 (subtype C) (HIV-1)
[26] = biological target: HIV-1 Env of isolate MGRM-G-028 (subtype G), on pseudovirus (HIV-1)
[27] = biological target: HIV-1 Env of isolate MGRM-G-009 (subtype G), on pseudovirus (HIV-1)
[28] = biological target: HIV-1 Env of isolate MGRM-G-025 (subtype G), on pseudovirus (HIV-1)
[29] = biological target: HIV-1 Env of isolate MGRM-G-015 (subtype G), on pseudovirus (HIV-1)
[30] = biological target: HIV-1 Env of isolate MGRM-C-009 (subtype C) (HIV-1)
[31] = biological target: HIV-1 Env of isolate MGRM-C-006 (subtype C) (HIV-1)
[32] = biological target: HIV-1 Env of isolate MGRM-G-016 (subtype G), on pseudovirus (HIV-1)
[33] = biological target: HIV-1 Env of isolate MGRM-C-027 (subtype C) (HIV-1)
[34] = biological target: HIV-1 Env of isolate MGRM-C-026 (subtype C) (HIV-1)
[35] = biological target: HIV-1 Env of isolate MGRM-G-004 (subtype G), on pseudovirus (HIV-1)
[36] = biological target: HIV-1 Env of isolate 93MW959 (subtype C) (HIV-1)
[37] = biological target: HIV-1 Env of isolate MGRM-G-027 (subtype G), on pseudovirus (HIV-1)
[38] = biological target: HIV-1 Env of isolate MGRM-G-014 (subtype G), on pseudovirus (HIV-1)
[39] = biological target: HIV-1 Env of isolate MGRM-C-028 (subtype C) (HIV-1)
[40] = biological target: HIV-1 Env of isolate MGRM-C-008 (subtype C) (HIV-1)
[41] = biological target: HIV-1 Env of isolate MGRM-C-005 (subtype C) (HIV-1)
[42] = biological target: HIV-1 Env of isolate 97ZA012 (subtype C) (HIV-1)
[43] = biological target: HIV-1 Env of isolate 98IN022 (subtype C) (HIV-1)
[44] = biological target: HIV-1 Env of isolate MGRM-C-004 (subtype C) (HIV-1)

B1: PGT-125 (antibody, V domains shown)
VH: QSQLQESGPRLVEASETLSLTCNVSGESTGACTYFWGWVRQAPGKGLEWIGSLSHCQSFWGSGWTFHNPSLKSRLTISLDTPKNQVFLKLTSLTAADTATYYCARFDGEVLVYNHWPKPAWVDLWGRGIPVTVSS
VL: QSALTQPPSASGSPGQSITISCNGTATNFVSWYQQFPDKAPKLIIFGVDKRPPGVPDRFSGSRSGTTASLTVSRLQTDDEAVYYCGSLVGNWDVIFGGGTTLTVL
Fold IC50 increase relative to wild-type [1]: 3.4 fold
IC50 (µg/mL), neutralization of pseudovirus [2]: > 50 µg/mL
IC50 (µg/mL), neutralization of pseudovirus [3]: > 50 µg/mL
IC50 (µg/mL), neutralization of pseudovirus [4]: > 50 µg/mL
IC50 (µg/mL), pseudovirus neutralization [5]: 1.23 µg/mL
IC50 (µg/mL), pseudovirus neutralization [6]: > 50 µg/mL
IC50 (µg/mL), pseudovirus neutralization [7]: > 50 µg/mL
IC50 (µg/mL), pseudovirus neutralization [8]: > 50 µg/mL
IC50 (µg/mL), neutralization of pseudovirus [9]: 0.033 µg/mL
IC50 (µg/mL), pseudovirus neutralization [10]: > 50 µg/mL
IC50 (µg/mL), pseudovirus neutralization [11]: > 50 µg/mL
IC50 (µg/mL), neutralization of pseudovirus [12]: > 50 µg/mL
IC50 (µg/mL), pseudovirus neutralization [13]: > 50 µg/mL
IC50 (µg/mL), neutralization of pseudovirus [14]: > 50 µg/mL
IC50 (µg/mL), neutralization of pseudovirus [15]: > 50 µg/mL
IC50 (µg/mL), pseudovirus neutralization [16]: 2.36 µg/mL
IC50 (µg/mL), pseudovirus neutralization [17]: > 50 µg/mL
IC50 (µg/mL), pseudovirus neutralization [18]: 42.5 µg/mL
IC50 (µg/mL), pseudovirus neutralization [19]: 0.13 µg/mL
Fold IC50 increase relative to wild-type [20]: 1.5 fold
IC50 (µg/mL), neutralization of pseudovirus [21]: > 50 µg/mL
IC50 (µg/mL), pseudovirus neutralization [22]: > 50 µg/mL
IC50 (µg/mL), pseudovirus neutralization [23]: 1.31 µg/mL
IC50 (µg/mL), pseudovirus neutralization [24]: 0.008 µg/mL
IC50 (µg/mL), pseudovirus neutralization [25]: > 50 µg/mL
IC50 (µg/mL), neutralization of pseudovirus [26]: 0.012 µg/mL
IC50 (µg/mL), neutralization of pseudovirus [27]: > 50 µg/mL
IC50 (µg/mL), neutralization of pseudovirus [28]: > 50 µg/mL
IC50 (µg/mL), neutralization of pseudovirus [29]: > 50 µg/mL
IC50 (µg/mL), pseudovirus neutralization [30]: > 50 µg/mL
IC50 (µg/mL), pseudovirus neutralization [31]: 0.015 µg/mL
IC50 (µg/mL), neutralization of pseudovirus [32]: > 50 µg/mL
IC50 (µg/mL), pseudovirus neutralization [33]: > 50 µg/mL
IC50 (µg/mL), pseudovirus neutralization [34]: 0.005 µg/mL
IC50 (µg/mL), neutralization of pseudovirus [35]: > 50 µg/mL
IC50 (µg/mL), pseudovirus neutralization [36]: 37.5 µg/mL
IC50 (µg/mL), neutralization of pseudovirus [37]: 34.4 µg/mL
IC50 (µg/mL), neutralization of pseudovirus [38]: 0.007 µg/mL
IC50 (µg/mL), pseudovirus neutralization [39]: 14 µg/mL
IC50 (µg/mL), pseudovirus neutralization [40]: > 50 µg/mL
IC50 (µg/mL), pseudovirus neutralization [41]: 2.09 µg/mL
IC50 (µg/mL), pseudovirus neutralization [42]: 2.46 µg/mL
IC50 (µg/mL), pseudovirus neutralization [43]: 22.1 µg/mL
IC50 (µg/mL), pseudovirus neutralization [44]: 1.82 µg/mL
